Data from patent US20160297851A1, “BROAD SPECTRUM […]” (priority 2012, published 2016).

How the values were obtained:
[1] = target: E. coli SPase with each of the other 19 amino acids at residue 84, in mutant strains of E. coli; experiment: cell-based or functional assay
[2] = target: P. aeruginosa PAO1 SPase (LepB) P84L, in the bacteria (P. aeruginosa), Q9I5G7; experiment: cell-based or functional assay

B1: arylomycin C16 (peptide)
peptide: SAGXAY
modifications: here or on the partner: C16 fatty acyl (palmitoyl) tail on the N-terminus of N-methyl-D-Ser2; D-Ala3; N-methyl-4-hydroxyphenylglycine (MeHpg) at 5, written X; biaryl bridge between MeHpg5 and Tyr7 (macrocycle MeHpg5-Ala6-Tyr7); free C-terminal carboxyl; the filing counts the lipid tail as position 1
MIC [1]: < 16 µg/mL
MIC [2]: 8 µg/mL
